# B1: iNV VLPs: purified insect cell (baculovirus) derived recombinant Norwalk virus virus-like particles, control reference antigen (protein)
# chain: MMMASKDATSSVDGASGAGQLVPEVNASDPLAMDPVAGSSTAVATAGQVNPIDPWIINNFVQAPQGEFTISPNNTPGDVLFDLSLGPHLNPFLLHLSQMYNGWVGNMRVRIMLAGNAFTAGKIIVSCIPPGFGSHNLTIAQATLFPHVIADVRTLDPIEVPLEDVRNVLFHNNDRNQQTMRLVCMLYTPLRTGGGTGDSFVVAGRVMTCPSPDFNFLFLVPPTVEQKTRPFTLPNLPLSSLSNSRAPLPISSMGISPDNVQSVQFQNGRCTLDGRLVGTTPVSLSHVAKIRGTSNGTVINLTELDGTPFHPFEGPAPIGFPDLGGCDWHINMTQFGHSSQTQYDVDTTPDTFVPHLGSIQANGIGSGNYVGVLSWISPPSHPSGSQVDLWKIPNYGSSITEATHLAPSVYPPGFGEVLVFFMSKMPGPGAYNLPCLLPQEYISHLASEQAPTVGEAALLHYVDPDTGRNLGEFKAYPDGFLTCVPNGASSGPQQLPINGVFVFVSWVSRFYQLKPVGTASSARGRLGLRR
# Experiments:
# mice = test: Oral immunogenicity of tomato sNV110-2 powder versus gavaged iNV VLPs; format: in vivo, mouse
# Description: FIGS. 23A-B show the immunologic response of mice to rNV-transgenic tomato. […] Five mice in each group ingested 1.2 g, 1.5 g or 2.3 g of tomato powder mixed with 0.6 volume of water, on days 1, 4, 17, and 20. One group was gavaged with 100 g iNV VLPs each. Nontransgenic tomato powder was fed to a negative control group. […] Standard errors were calculated on the log-transformed titers.
# Three doses of tomato sNV110-2 powder (1.5 gm, 2.5 gm, or 5 gm) were provided on days 1, 4, 17, and 20. The actual doses ingested by each mouse were, on average, 1.2, 1.5 and 2.2 gm each feeding, containing 192, 240, and 352 μg rNV/dose, respectively, or 60, 75, and 1101 g VLPs/dose. Nontransgenic tomato TA234 powder (5 gram per mouse per feed) were given to one control group (−), and 100 μg purified iNV VLPs were orally administered by gavage to another control group (+). Serum and fecal antibodies were measured by ELISA, and GMTs were calculated for each group of mice. All pre-immune serum and fecal samples were negative for rNV-specific IgG and IgA, as were control group (−) (titers<20; the lowest dilution tested). […] No significant difference (p=0.05) in primary titers was observed among groups. […] Intestinal antibody responses reached their peaks at 27 dpi with IgA GMTs ranging from 10681 to 19127. […] In contrast, the control i-rNV gavage group had their maximum levels of IgG GMT=826 and IgA GMT=1748, which were 8.2 and 6.2 fold less than the group that ingested 1.2 gram of sNV110-2 powder (p<0.0183). Further, long-term serum antibody responses declined to baseline in 3 months (IgG GMT=58 at 87 dpi).
# [1] = low pH, lyophilized, stored long term at 4° C.; cited from earlier work
# [2] = day 11, gavage of purified iNV VLPs (100 μg)
molecule,measurement,setting,value
B1,IgA GMT,mice; [2],62
same,IgG GMT,mice; [2],18
same,mice with primary intestinal antibody responses,mice; [2],2 of 5
same,mice with primary serum antibody responses,mice; [2],1 of 5
same,maximum IgA GMT,mice; i-rNV gavage control group,1748
same,maximum IgG GMT,mice; i-rNV gavage control group,826
same,long-term IgG GMT,"mice; i-rNV gavage group, 87 dpi",58
same,"maximum IgA GMT, fold less than group ingesting 1.2 gram sNV110-2 powder",mice; p<0.0183,6.2 fold
same,"maximum IgG GMT, fold less than group ingesting 1.2 gram sNV110-2 powder",mice; p<0.0183,8.2 fold
same,stability,[1],stable
